Experimental data from paper PMC8218332 (Cell, 2021).

B1: mAb 384 (antibody, V domains shown)
VH: EVQLVESGGGLVKPGESLRLSCAASGFTFSDYYMTWIRQAPGKGLEWVSYIRSSGHTIYYADSVKGRFTISRDNAKNSLYLQMNSLRVEDTAVYYCARGGVLRFLEWPLNAFDIWGQGTMVTVSS
VL: DIQLTQSPSSLSASVGDRVTITCRASQGISNYLAWYQQKPGKVPKLLIYAASTLQSGVPSRFSGSGSGTDFTLTISSLQPEDVATYYCQKYNNALGTFGQGTKVEIK
notes: copies: 2 + 2
B2: REGN10987 (antibody, V domains shown)
VH: QVQLVESGGGVVQPGRSLRLSCAASGFTFSNYAMYWVRQAPGKGLEWVAVISYDGSNKYYADSVKGRFTISRDNSKNTLYLQMNSLRTEDTAVYYCASGSDYGDYLLVYWGQGTLVTVSS
VL: QSALTQPASVSGSPGQSITISCTGTSSDVGGYNYVSWYQQHPGKAPKLMIYDVSKRPSGVSNRFSGSKSGNTASLTISGLQSEDEADYYCNSLTSISTWVFGGGTKLTVL
notes: source: provided by AstraZeneca; copies: 2 + 2
B3: mAb 316 (antibody, V domains shown)
VH: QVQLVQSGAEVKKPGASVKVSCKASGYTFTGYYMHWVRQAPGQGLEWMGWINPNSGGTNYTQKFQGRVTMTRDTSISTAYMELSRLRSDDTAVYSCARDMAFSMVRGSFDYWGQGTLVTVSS
VL: QAVLTQPPSASGSPGQSVTISCTGTSSDVGGYNYVSWYQQHPGKAPKLMIYEVSKRPSGVPDRFSGSKSGNTASLTVSGLQAEDEADYYCSSYAGSNHWVFGGGTKLTVL
notes: copies: 2 + 2
B4: mAb 222 (antibody, V domains shown)
VH: EVQLVESGGGLIQPGGSLRLSCAASGLTVSSNYMSWVRQAPGKGLEWVSVIYSGGSTFYADSVKGRFTISRDNSKNTLYLQMNSLGAEDTAVYYCARGEGSPGNWFDPWGQGTLVTVSS
VL: DVVMTQSPGTLSLSPGERATLSCRASQSVPSSYLAWYQQKPGQAPRLLIYGASTRATGIPDRFSGSGSGTDFTLTISRLEPEDFAVYYCQHYDTSPRFGGGTKVDIK
notes: copies: 2 + 2
B5: mAb 278 (antibody, V domains shown)
VH: QVQLVQSGAEVKKPGASVKVSCKASGYIFIRYGISWVRQAPGQGLEWMGWISANNGYTNYAQKLQGRVTMTTDTSTSTAYMELRSLRSDDTAVYYCARDGGILTGYLDYFDHWGQGTLVTVSS
VL: DIQMTQSPSSLSASVGDRLTITCRASQSIASYLNWYQQKPGKAPKLLIYAASSLQSGVPSRFSGSGSGTDFTLTISSLQPEDFATYHCQQSYSTLGITFGPGTKVDIK
notes: copies: 2 + 2
B6: mAb 88 (antibody, V domains shown)
VH: QLQLQESGPGLVKPSQTLSLTCTVSGGSISSGSYNWTWIRQPAGKGLEWIGRIYNSGSTNYNPSLKSRVTISVDTSKNQLSLKVRSVTAADTAVYYCARHCSGGTCYPKYYYGMDVWGQGTTVTVSS
VL: QSALTQPPSVSEAPRQRVTISCSGSSSNIGNNAVNWYQQFPGKAPKLLIYYDDLLPSGVSDRFSGSKSGTSASLAISGVQSEDEADYYCAAWDDSLNVVVFGGGTKLTVL
notes: copies: 2 + 2

target: His-tagged SARS-CoV-2 RBD (Victoria RBD) (SARS-CoV-2, Victoria/Wuhan-Hu-1 (same …, UniProt P0DTC2)); experiment: BLI; conditions: both partners purified

B1 was tested. Which Kd did it give?
Its Kd is 0.65 nM.

For B2, which Kd is on record?
The Kd was 0.38 nM.

How did the Kd turn out when B3 was run?
The Kd was 0.38 nM.

For B4, which Kd is on record?
The Kd was 0.25 nM.

Which Kd does the source give for B5 here?
The Kd was 1.6 nM.

With B6 as the binder, how does the Kd read?
The Kd was 4.4 nM.
